Source: publication PMC5777247, “Cohesin SA2 is a sequence-independent DNA-binding protein that recognizes DNA replication and repair intermediates”

T1: SA2 1-1051 (human, UniProt Q8N3U4 1-1051)
T1 sequence: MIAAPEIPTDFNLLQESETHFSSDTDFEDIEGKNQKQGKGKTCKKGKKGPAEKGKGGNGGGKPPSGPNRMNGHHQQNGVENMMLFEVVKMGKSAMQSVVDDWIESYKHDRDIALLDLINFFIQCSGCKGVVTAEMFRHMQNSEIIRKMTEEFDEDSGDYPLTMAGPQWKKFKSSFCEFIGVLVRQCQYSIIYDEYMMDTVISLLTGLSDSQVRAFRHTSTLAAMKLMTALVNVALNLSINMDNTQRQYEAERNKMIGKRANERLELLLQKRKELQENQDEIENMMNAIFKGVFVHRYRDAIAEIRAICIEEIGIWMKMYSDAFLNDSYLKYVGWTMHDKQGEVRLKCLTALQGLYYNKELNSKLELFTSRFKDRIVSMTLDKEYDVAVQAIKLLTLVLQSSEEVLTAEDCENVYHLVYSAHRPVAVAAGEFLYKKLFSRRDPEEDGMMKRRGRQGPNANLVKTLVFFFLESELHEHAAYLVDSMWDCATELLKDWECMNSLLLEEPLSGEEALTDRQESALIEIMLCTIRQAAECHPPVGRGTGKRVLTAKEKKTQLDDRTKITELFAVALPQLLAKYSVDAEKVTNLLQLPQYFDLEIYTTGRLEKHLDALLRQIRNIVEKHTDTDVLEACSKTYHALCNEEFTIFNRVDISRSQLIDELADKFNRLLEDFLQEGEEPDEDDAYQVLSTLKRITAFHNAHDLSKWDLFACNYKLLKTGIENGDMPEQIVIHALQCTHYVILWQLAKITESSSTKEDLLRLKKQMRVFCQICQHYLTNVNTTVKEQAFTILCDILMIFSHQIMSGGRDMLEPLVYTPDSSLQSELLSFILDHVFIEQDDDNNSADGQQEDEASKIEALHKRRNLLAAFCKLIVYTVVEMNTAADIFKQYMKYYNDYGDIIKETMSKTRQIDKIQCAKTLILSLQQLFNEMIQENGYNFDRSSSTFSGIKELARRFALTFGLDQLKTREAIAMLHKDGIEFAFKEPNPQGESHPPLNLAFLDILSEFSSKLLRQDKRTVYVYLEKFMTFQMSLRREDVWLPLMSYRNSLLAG

T2: SA1 (STAG1), full length (UniProt Q8WVM7 1-1258)
T2 sequence: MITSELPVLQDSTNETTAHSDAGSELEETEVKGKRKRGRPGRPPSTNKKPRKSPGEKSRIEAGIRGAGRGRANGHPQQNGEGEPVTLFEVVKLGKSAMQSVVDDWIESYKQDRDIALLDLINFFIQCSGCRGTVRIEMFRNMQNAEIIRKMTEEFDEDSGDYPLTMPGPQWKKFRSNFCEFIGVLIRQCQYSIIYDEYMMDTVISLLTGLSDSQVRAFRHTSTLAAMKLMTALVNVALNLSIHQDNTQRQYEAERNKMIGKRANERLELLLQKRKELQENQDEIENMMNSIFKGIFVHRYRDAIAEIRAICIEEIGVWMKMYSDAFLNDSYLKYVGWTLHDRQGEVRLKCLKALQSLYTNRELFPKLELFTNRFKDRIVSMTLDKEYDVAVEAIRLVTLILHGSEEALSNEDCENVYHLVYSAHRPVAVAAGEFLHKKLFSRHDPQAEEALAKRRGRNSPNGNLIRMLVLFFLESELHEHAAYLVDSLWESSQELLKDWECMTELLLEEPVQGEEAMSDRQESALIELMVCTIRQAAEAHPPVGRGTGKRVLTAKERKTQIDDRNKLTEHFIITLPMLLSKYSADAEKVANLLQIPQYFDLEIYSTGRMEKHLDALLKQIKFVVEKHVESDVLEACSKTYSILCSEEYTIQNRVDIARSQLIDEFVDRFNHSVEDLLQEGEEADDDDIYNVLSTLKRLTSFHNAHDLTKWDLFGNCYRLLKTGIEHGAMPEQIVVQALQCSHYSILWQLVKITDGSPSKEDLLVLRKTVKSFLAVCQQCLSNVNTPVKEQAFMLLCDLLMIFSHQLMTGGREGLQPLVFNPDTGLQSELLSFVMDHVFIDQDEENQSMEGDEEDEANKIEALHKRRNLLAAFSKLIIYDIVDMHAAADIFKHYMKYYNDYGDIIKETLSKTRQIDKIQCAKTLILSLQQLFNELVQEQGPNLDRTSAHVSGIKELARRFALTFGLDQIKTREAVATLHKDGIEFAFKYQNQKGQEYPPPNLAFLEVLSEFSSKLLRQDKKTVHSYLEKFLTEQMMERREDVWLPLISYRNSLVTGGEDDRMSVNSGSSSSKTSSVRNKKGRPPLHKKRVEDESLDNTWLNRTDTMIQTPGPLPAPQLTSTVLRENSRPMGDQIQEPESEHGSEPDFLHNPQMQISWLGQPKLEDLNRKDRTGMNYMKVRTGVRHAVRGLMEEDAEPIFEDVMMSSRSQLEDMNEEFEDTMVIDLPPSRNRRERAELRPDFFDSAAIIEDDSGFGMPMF

T3: SA2 (STAG2), full length (human, UniProt Q8N3U4 1-1231)
T3 sequence: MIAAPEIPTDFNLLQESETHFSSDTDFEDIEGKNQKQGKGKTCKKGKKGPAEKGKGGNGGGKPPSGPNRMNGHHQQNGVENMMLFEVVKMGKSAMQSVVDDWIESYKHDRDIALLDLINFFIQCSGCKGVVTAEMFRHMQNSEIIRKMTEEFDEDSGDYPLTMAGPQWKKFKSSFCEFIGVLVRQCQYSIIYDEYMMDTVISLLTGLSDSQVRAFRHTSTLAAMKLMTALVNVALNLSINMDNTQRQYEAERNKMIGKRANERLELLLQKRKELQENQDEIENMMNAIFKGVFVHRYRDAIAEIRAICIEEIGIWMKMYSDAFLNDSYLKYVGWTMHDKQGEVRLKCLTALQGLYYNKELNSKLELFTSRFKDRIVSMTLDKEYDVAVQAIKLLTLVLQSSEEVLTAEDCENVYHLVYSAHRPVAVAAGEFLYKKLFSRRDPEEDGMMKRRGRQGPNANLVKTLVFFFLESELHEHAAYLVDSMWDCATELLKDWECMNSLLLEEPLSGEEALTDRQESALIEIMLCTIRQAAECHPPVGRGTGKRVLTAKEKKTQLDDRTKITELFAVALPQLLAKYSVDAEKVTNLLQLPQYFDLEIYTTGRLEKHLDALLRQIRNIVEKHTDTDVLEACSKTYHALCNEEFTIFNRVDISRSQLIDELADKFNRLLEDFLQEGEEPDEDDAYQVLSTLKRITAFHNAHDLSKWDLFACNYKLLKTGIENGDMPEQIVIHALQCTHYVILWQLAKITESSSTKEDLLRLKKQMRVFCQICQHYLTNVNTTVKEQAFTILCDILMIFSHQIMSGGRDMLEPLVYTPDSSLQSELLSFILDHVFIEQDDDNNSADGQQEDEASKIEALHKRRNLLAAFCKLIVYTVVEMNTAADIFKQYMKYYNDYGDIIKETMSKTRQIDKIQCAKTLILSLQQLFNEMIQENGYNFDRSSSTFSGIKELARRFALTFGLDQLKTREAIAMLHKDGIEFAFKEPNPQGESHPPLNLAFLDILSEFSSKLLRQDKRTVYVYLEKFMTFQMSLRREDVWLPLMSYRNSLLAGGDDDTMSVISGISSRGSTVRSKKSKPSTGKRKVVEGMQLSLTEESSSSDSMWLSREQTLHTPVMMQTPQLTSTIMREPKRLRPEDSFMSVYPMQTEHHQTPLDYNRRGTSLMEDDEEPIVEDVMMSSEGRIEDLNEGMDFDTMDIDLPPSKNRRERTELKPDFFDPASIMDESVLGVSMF

B1: ss66 (Alexa ss66) (ssDNA)
DNA: CTGGATCCGTACAGTGTAAGGGTGAGTGGTTGGGTGTGTGGGTGTTGATGTAGAACAAGAATTCGA
B2: ds25 (Alexa ss25 + ss-25-com) (dsDNA)
DNA 1: TGTCGCATAGTGTAGTCGGTCTTGT
DNA 2: ACAAGACCGACTACACTATGCGACA

Columns and labels:
SA2 1-1051 = molecular target: T1, SA2 1-1051; experiment: fluorescence anisotropy; Anisotropy: 20 mM Hepes pH 7.5, 0.1 mM MgCl2, 0.5 mM DTT, 100 mM KCl, 1 nM DNA; AFM: 20 mM Hepes pH 7.5, 100 mM KCl, 0.1 mM MgCl2, room temperature, 20 min; conditions: protein: recombinant; tags: 6xHis; label: Alexa 488
SA1 (STAG1), full length = molecular target: T2, SA1 (STAG1), full length; experiment: as above; conditions: protein: recombinant; label: Alexa 488
SA2 (STAG2), full length [1] = molecular target: T3, SA2 (STAG2), full length; experiment: as above; conditions: protein: recombinant; tags: 6xHis; label: Alexa 488
SA2 (STAG2), full length [2] = molecular target: T3, SA2 (STAG2), full length; experiment: fluorescence anisotropy; no detectable binding (ND); Anisotropy: 20 mM Hepes pH 7.5, 0.1 mM MgCl2, 0.5 mM DTT, 100 mM KCl, 1 nM DNA; AFM: 20 mM Hepes pH 7.5, 100 mM KCl, 0.1 mM MgCl2, room temperature, 20 min; conditions: protein: recombinant; tags: 6xHis; label: 5' Alexa 488 on strand 1; blunt

| Binder | Kd (SA2 1-1051) | Kd (SA1 (STAG1), full length) | Kd (SA2 (STAG2), full length [1]) | binding result (SA2 (STAG2), full length [2]) |
| --- | --- | --- | --- | --- |
| B1 | 28 nM | 36.5 ± 0.2 nM | 41 ± 5.3 nM |  |
| B2 |  |  |  | no binding |
